Measurements from the supplement of paper PMC9170038.

The sequences below were run on MS2 coat protein (assay: apparent KD of MS2 coat protein; higher = weaker reporter binding). Details: Eterna round: R107; input ligand: arginine 13.2 mM.
Procedure, shortened: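 Designed RNA switches were transcribed on-chip from Illumina sequencing clusters and titrated with SNAP-549-labelled MS2 coat protein in twofold steps from 0.7 or 1.5 nM up to 3 µM. Each step lasted 0.8–1.5 h at first and 10–20 min by the end, in 100 mM Tris-HCl pH 7.5, 80 mM KCl and 4 mM MgCl2, without or with constant ligand. Apparent KD is the median, for each design, of fits to normalised cluster binding curves.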

Row | Sequence | apparent KD of MS2 coat protein
1 | AUUGUCGCGUCGGCCGCCACUGUCAUGGUUUUCGUGGAACACAUGAGGAUCACCCAUGUAAUUGACAGGACCGGGACGUGGCGGC [Vevea] | 10.2 nM
2 | ACAUGAGGAUCACCCAUGUACAUGAGGGAAGGAGCGGUACAUGUACCAGGUAGGUCGCCCAACAGCAUCAGCCAUGUACAUCAGC [ggvmullin] | 31.4 nM
3 | AGUUAUUCGAACAUGGUUGACGAGUGGCAACGAGGACCGGUACGGCCGCCACUCGAAUAAACAUGAGGAUCACCCAUGUACAAAU [T''-M'-T'-T-MS2 - Design 10] | 72.1 nM
4 | CGAGUUCGCUGAUGGGCUACGUCAGGUGAUACCAGCCACUCCCGCGGCCCUUGGCAGCACAUGAGGAUCACCCAUGUAGAGCUUG [Esinve] | 12.2 nM
5 | CGGGUUGGACCAGGAAAUGGUCUGACGCGCCGAGGACCGGUACGGCCGCCACUCGCGGGUACAUGAGGAUCACCCAUGUCGGUGG [#1 Same State - Tryptophan A Attempt #12 (HarryS)] | 58.2 nM
6 | ACAUUUAACUGAAGGAGCGUGAUUAACAUGAGGAUCACCCAUGUAACUUAGAUGCUUAUAUCACAGGUAGGUCGCAGACUAAUGA [JR_ExcArginiB_Sub011] | 13.9 nM
7 | AGCAGCUCGAAAGAGUUGCACUCAUGUGAAGGAGCGCGCGUUAGCGCAGGUAGGUCGCACAUGAGGAUCACCCAUGUACCUUCUA [MAT - Exclusion Arginine A - Mod of Eli - D15] | 87.3 nM
8 | GGUUUAUAUAUAUAUAUAUAGAUUACUGAAGGAGCGGGAAAUAACCCAGGUAGGUCGCAGAGAUCCACAUGAGGAUCACCCAUGU [!0.E] | 37.1 nM
9 | CUCCUGGGAGCGGCCGCCACUGGAGGCCUUGCGCGACAUGAGGAUCACCCAUGUUGGCCCGGCCUCAGGACCGGGUUCGCGCGAG [Same State - Tryptophan B Attempt #2] | 12.3 nM
10 | CCUAUCCAGUCGGCCGCCACUGACCAUUUGGAACAGUGGGUGAAAACAUGAGGAUCACCCAUGUACAGGACCGGGACUGUAUAGG [Ex Tryptophan B 20] | 14.7 nM
11 | GGGUACAUCGCGGCCGCCACUGGUGUAAAUACAUGAGGAUCACCCAUGUCGAUGGAGACAUCGGGUAGGACCGGGUGAUGUACCG | 19.8 nM
12 | AAAUUAUAGGCGGCCGCCACUAGAGUUAGGCUUAUGUACUGGGUAACAUGAGGAUCACCCAUGUAUAGGACCGGGCCAUAAUAAA [Same State - Tryptophan B (Freestyle 3)] | 46.9 nM
13 | AUAAUAAGGUGAUCCUAAGUCGUACCGUAACGAGGACCGGUACGGCCGCCACUCGAACAUGAGGAUCACCCAUGUAUGUACGACA [M'-T'-T-MS2-T'' - Design 6] | 28.1 nM
14 | UAACAUGAGGCGGCCGCCACUCAACAUGAGGAUCACCCAUGUAUGUGUAAACAUGAGGAUCACCCGAGGACCGGGCCCUUGUAAU [Same State Tryptophan B 4] | 25.2 nM
15 | AAAUAGGUAGGAGAUACCAGAUACGUUAACAUGAGGAUCACCCAUGUGUAUGCACUUAGUGUCCCUUGGCAGCUCGAGGAUCUGG [#18 Same State - Theophylline B] | 23.3 nM
16 | UGUAUGUGAUUUGAUACCAGACCAGCUGGUGGUCCAUGAGGAACACCCAUGGAGGUUUGGGUCCCUUGGCAGCAAAUCGCAUACU [SS Theo B #24 Ms20] | 152 nM
17 | ACAUGAAGAACAGCGGUGGGCGCGCUCGAUACCAGUACUUUAAAAUACCCUUGGCAGCGACAUGAGGAUCACCCAUGUGAGAUGA [XTheo A #4] | 15.3 nM
18 | AAUCGUAAGGCGGCCGCCACUACACAUGAGGAUCACCCAUGUCUCGCGGGCUUGCGUUGGGAUUGUAGGACCGGGCCAGUAAUAA [Exclusion - Tryptophan B (Freestyle 12)] | 19.3 nM
19 | GAUACCAUGAUCCUCCUGGUAUCGGCUGAUACCAGCCAGCUGACUGGCCCUUGGCAGCAGCAUACAUGAGGAUCACCCAUGUUAA [(T)''-(M)'-(T)'-(Theo)-(Ms2)_Design4] | 35.4 nM
20 | GGCCUAUGGCGCGAUACCAGCUUGAGUGUACUGGCCAGGUACAUGAGGAUCACCCAUGUAAGCCCUUGGCAGCGCGUCAUAGGCC [#1 Exclusion - Theophylline B Attempt #23 (HarryS)] | 8.91 nM
21 | CUAUAAGUAACUGAUACCAGUGUACUGACAUGAGGAUCACCCAUGUUGGGUUUUGUUGUACACCCUUGGCAGCAGAAUCUUGUAG [AstrosExyTheB#15] | 46.5 nM
22 | AUAACAUGAGGAUCACCCAUGUUGAGUGAUACCAGACUAUGUAAUGUCCCUUGGCAGCACAAGUAAAGUUAUAAAUAAUGAUAGA [#12 SameState-TheophyllineA] | 48.2 nM
23 | ACAUGAGGAUCACCCAUGUACAUCACCCGACGAGGACCGGUACGGCCGCCACUCGGGUAUAUAUAUACAUCGGGUGGUUUUGCAU [a15jan] | 40.7 nM
24 | AGGACGGUCGGAAGGAGCGGUACAUGAGGAUCACCCAUGUACUCCUGGGCAUCCGUAGUGUGCCAGGUAGGUCGCCGAUUGCGGG [XArg-B8] | 12.1 nM
25 | AAUAACAUGAGGAUCACCCAUGUAAAAGAUACCAGAUGCAUGAUGAUCCCUUGGCAGCUUAACGCUGAUUGAUUACAAUCAGCGA | 36.5 nM
26 | UGUAAUGGGAUCAACCCAUGAGAGUCUGAAGGAGCGAUCGUAAGAUCAGGUAGGUCGCAGGAGACAUGAGGAUCACCCAUGUAUA [Arg A Ex t2] | 33.3 nM
27 | GGGAGAUAGGCGGCCGCCACUGAUUUUCAUAUAUAUAUAACAUGAGGAUCACCCAUGUAGAUAUACAGGACCGGGCCUAUUUUUU [aaaE] | 19.1 nM
28 | GAUCGAAAUAACGUCUAGGAAAACUAGACGCGAGGACCGGUACGGCCGCCACUCGGGUGGCACAUGAGGAUCACCCAUGUAGAUC [#SwitchBubble 5 #GuTurnoff #MS2 3'] | 69.4 nM
29 | CGUAUCGUAACUGAUACCAGUGUACUGACAUGAGGAUCACCCAUGUUGGGUUUUGUUGUACACCCUUGGCAGCAGAAUCGAUACG [AstrosExyTheB#6] | 52.1 nM
